Reference: patent US20240376151A1, “STAPLED PEPTIDES AND METHODS THEREOF” (FOG PHARMACEUTICALS, INC., priority 2022, published 2024)
Numbered stars: 1 amine (or outer) side, 2 acyl side, 3 side chain; on linkers, the order of the positions; unused ones are H or OH. Bridge positions count the residues as written; N and C are the ends. Ends that are not written are not given here. Phenylene(1,4-NHCOCH2)2 = O=C(C[*:1])Nc1ccc(NC(=O)C[*:2])cc1

Biological target: T1, MDM2 (Homo sapiens, UniProt Q00987)
T1 construct: made in house
T1 sequence (Q00987 25-109): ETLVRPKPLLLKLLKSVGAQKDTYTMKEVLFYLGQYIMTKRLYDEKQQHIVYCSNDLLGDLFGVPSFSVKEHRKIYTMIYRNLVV
Experiment: Naive Library Presenter Screening (phage, NGS), MDM2
Assay type: binding
Conditions: for interaction data, BLANK: Blank = Media only

[1] = MDM2 clusters (C82, C85), first column
[2] = MDM2 clusters (C82, C85), second column
[3] = MDM2 clusters (C82, C85), target concentration 10 nM
[4] = MDM2 clusters (C82, C85), target concentration 30 nM
[5] = MDM2 clusters (C82, C85), target concentration 100 nM
[6] = MDM2 clusters (C82, C85), target concentration 300 nM
[7] = MDM2 clusters (C82, C85), target concentration 1000 nM, first column
[8] = MDM2 clusters (C82, C85), target concentration 1000 nM, second column
[9] = MDM2 target concentration 10 nM
[10] = MDM2 target concentration 30 nM
[11] = MDM2 target concentration 100 nM
[12] = MDM2 target concentration 300 nM
[13] = MDM2 target concentration 1000 nM, first column
[14] = MDM2 target concentration 1000 nM, second column

interaction data, BLANK [1]	interaction data, BLANK [2]	interaction data at Target Concentration 10 [3]	interaction data at Target Concentration 30 [4]	interaction data at Target Concentration 100 [5]	interaction data at Target Concentration 300 [6]	interaction data at Target Concentration 1000 [7]	interaction data at Target Concentration 1000 [8]	interaction data at Target Concentration 10 [9]	interaction data at Target Concentration 30 [10]	interaction data at Target Concentration 100 [11]	interaction data at Target Concentration 300 [12]	interaction data at Target Concentration 1000 [13]	interaction data at Target Concentration 1000 [14]	Sequence
0	0	0	2	33	74	57	82							DPAHYECTDAAFECYWF (linker 7-14 via Phenylene(1,4-NHCOCH2)2 (inferred))
0	0	0	131	203	226	185	315							DPAINTCQDAAFWCYWS (linker 7-14 via Phenylene(1,4-NHCOCH2)2 (inferred))
0	0	0	0	25	17	25	57							DPALFSCDSAAFSCYWY (linker 7-14 via Phenylene(1,4-NHCOCH2)2 (inferred); not fully specified (C-terminus))
0	0	0	0	24	36	24	32							DPALMQCTEAAFWCYWE (linker 7-14 via Phenylene(1,4-NHCOCH2)2 (inferred); not fully specified (C-terminus))
0	0	49	104	206	192	185	176							DPAMSNCFMAAWECLIQ (linker 7-14 via Phenylene(1,4-NHCOCH2)2 (inferred); not fully specified (C-terminus))
								11	154	643	1045	776	1088	DPANHACFQAAWDCQFF (linker 7-14 via Phenylene(1,4-NHCOCH2)2 (inferred))
0	0	0	0	15	37	23	48							DPAQEDCHAAAFWCIWD (DPAQEDCHAAAFWCIWD-NH2; linker 7-14 via Phenylene(1,4-NHCOCH2)2 (inferred))
0	0	0	0	13	13	36	18							DPAQHHCQQAAFWCQWW (DPAQHHCQQAAFWCQWW-NH2; linker 7-14 via Phenylene(1,4-NHCOCH2)2 (inferred))
0	0	0	12	132	166	104	237							DPAQQDCFLAAWDCVWQ (DPAQQDCFLAAWDCVWQ-NH2; linker 7-14 via Phenylene(1,4-NHCOCH2)2 (inferred))
0	0	0	0	35	47	52	29							DPAQSDCFQAAWECVAN (DPAQSDCFQAAWECVAN-NH2; linker 7-14 via Phenylene(1,4-NHCOCH2)2 (inferred))
0	0	0	0	17	31	32	37							DPARLRCQDAAFACMWY (DPARLRCQDAAFACMWY-NH2; linker 7-14 via Phenylene(1,4-NHCOCH2)2 (inferred))
0	0	0	1	94	107	120	114							DPARQDCFSAAWMCMAI (DPARQDCFSAAWMCMAI-NH2; linker 7-14 via Phenylene(1,4-NHCOCH2)2 (inferred))
0	0	0	53	106	232	148	261							DPARRECMDAAFWCQWV (DPARRECMDAAFWCQWV-NH2; linker 7-14 via Phenylene(1,4-NHCOCH2)2 (inferred))
0	0	0	0	9	6	14	8							DPARVHCNQAAFMCHWV (DPARVHCNQAAFMCHWV-NH2; linker 7-14 via Phenylene(1,4-NHCOCH2)2 (inferred))
0	0	0	19	102	165	124	209							DPASADCFNAAWDCMWI (DPASADCFNAAWDCMWI-NH2; linker 7-14 via Phenylene(1,4-NHCOCH2)2 (inferred))
0	0	0	8	28	27	33	14							DPASAECFFAAWQCIAT (DPASAECFFAAWQCIAT-NH2; linker 7-14 via Phenylene(1,4-NHCOCH2)2 (inferred))
								2	57	241	559	336	447	DPASEACFQAAWDCVSW (DPASEACFQAAWDCVSW-NH2; linker 7-14 via Phenylene(1,4-NHCOCH2)2 (inferred))
0	0	0	31	138	165	94	231							DPASQDCFSAAWQCLQT (DPASQDCFSAAWQCLQT-NH2; linker 7-14 via Phenylene(1,4-NHCOCH2)2 (inferred))
0	0	0	0	30	30	30	70							DPATESCEDAAFWCHWI (DPATESCEDAAFWCHWI-NH2; linker 7-14 via Phenylene(1,4-NHCOCH2)2 (inferred))
								1	60	324	683		679	DPATQQCFQAAWDCQFM (linker 7-14 via Phenylene(1,4-NHCOCH2)2 (inferred))

Sequence	interaction data, BLANK [1]	interaction data, BLANK [2]	interaction data at Target Concentration 10 [3]	interaction data at Target Concentration 30 [4]	interaction data at Target Concentration 100 [5]	interaction data at Target Concentration 300 [6]	interaction data at Target Concentration 1000 [7]	interaction data at Target Concentration 1000 [8]	interaction data at Target Concentration 10 [9]	interaction data at Target Concentration 30 [10]	interaction data at Target Concentration 100 [11]	interaction data at Target Concentration 300 [12]	interaction data at Target Concentration 1000 [13]	interaction data at Target Concentration 1000 [14]
DPAVTECFQAAWRCMVM (linker 7-14 via Phenylene(1,4-NHCOCH2)2 (inferred); not fully specified (C-terminus))	0	0	0	77	184	276	269	268						
